Measured values from the DeepSol protein solubility set.

Assay: soluble on expression in E. coli; label from the status in PepcDB or PDB records

| Sequence | soluble on expression in E. coli |
| --- | --- |
| MGSDKIHHHHHHMLFLSGLLGVSAQRVALKNNLLYDATLTPNLALEIGVGPKMTVDLLGGVNPFKISDDHYWKHWLAQPELRYWFCEKFNGVCIGLHGHVGQMNIAGISVPPVGSIHPKSDFDDARYHRYQGWFYGGGISIGRQWILGNHWNLEASIGGGYIHFDYDKYQCVECGKKVGVDKKADYFGLTRATLSLIYLFK | not soluble |
| MGSDKIHHHHHHMLGKTAGGLYWLFRYLERSENTARLIETGFRIALTRPDGSDDEWRSVLQTAAVRDLYEGLYGEVEQAKAIDFLLRDRANPSSILSSISEARQNARLTRTALTREVWEAINDAYMNLKELLAHPVSAKTLPGTLATIRQHSALVRGAMHGTMLRTDIFDFCRLGTFIERADNTARILDVKYYVLLPSMTQVGSDLDNVQWETILRAVASHRSYRWLMGGETTPKGIADFLVFDTRMPRSLRFTVKKMASNLEYLAENYGQRHACHDQMDVLLARLKHGTIDEVFDDGLHEFLTEFLLDIGALGAQIESDYRFLG | not soluble |
| MGSDKIHHHHHHMLIHICCSVDNLYFLKKAKEAFAGEKIVGFFYNPNIHPYSEYLLRLEDVKRTCEMLGIELLEGDYELEKFLDKAKGKELLGEKSERCFECFDLRLEASALKAFELGEEKFTTTLLTSPKKDPNQLIAKGQHIAQRHNLEFVVFRNDNFEHFKSELDLNLQALARENELYRQNYCGCQFALKIQKESQNRSPFELYSPLKRQILPASIEERTQVFRELDAAKKDANKPFLAQKTIATYRLLNGGVWLSKNSNPLDCCILARSKSKAKVRINDLRWVFSQRLSALVGYSQRDETLFLTLEGLNTLMAKNYDNLKELNLNPLSYEEELSLRALVSGSESINPIIVLEERTEKTLFVEIKSIFQEEKVFYLL | not soluble |
| MGSDKIHHHHHHMLKHFGSKVRNLRVTRNITREDFCGDETELSVRQLARIESGQSIPNLTKAHYIAKQLNVKLDILTGGESLELPKRYKELKYLILRIPTYADAERLKLRECQFDHIFEEFYDNLPEDECLAIDSLQAKFEVYQTGDINFGVEVLCECFDKVKYKEKYTLNDLIIIDLFLTCAVVSKFNNRAFTKEVFQTICKTLISQNHKLTAEDLFWFNHVLLNCVFVGLCLNSEECLAEMLEVSRQTMVSTHDFHKMPLYFMYQWKYFITIDNDIKSAENAYQQSIMFSKMIDDKHLIKKLELEWQEDITGH | not soluble |
| MGSDKIHHHHHHMLKKSNIQWTAKQIAKMMDKGTLGFDNSVQRGLCWKTDKKILLIDSMFQNYPIPAFYAARNEDKTYDMLDGKQRCHAIKEFIEGKFKLDGIEEVELEDGESIDVNGMSFEELPEELQDRVKDYSLTVYFFLDLSDDQVSEMFYRLNNGKALSAIELTRVKAKSFDAIRELGNHEIFKNALTLKQVNKYTNEDIVIKTYAMLYTENPSFETKKIRPLMQDVEFTEQQKEEIKKAYSKILDIWKAINTEDKEHKKIAKRILTRTHLLTIIPIVIKSDKTIEELASWLLKFYSGKRRASISEKYNSAAGSGSARSESIKIRLEELKKDYNEYFSNQDEEINKKIEEIFKEGDSIE | not soluble |
| MGSDKIHHHHHHMLLAVDHTTHYVFSGPVSHGLQRLRLAPKSTAGQRVVEWSMQFEGARLQAEYDDANNNRVSLISFDPGVSQVTIRCEGLVDTNDEAGIIGKHAGFMPMWQFLEQTDLTRAGARTRALLAALPHEDSTLVKLHALSALVRERVEYASGHTDVDTTAEGALAAGRGVCQDHAHIFIGAARALGIPARYACGYLMMDDRVEQDAGHAWAEAHVESLGWVGFDVSNGISPDARYIRVATGRDYRDAAPVTGIRYGAMDEAMHVRLAVQQQRVEQ | not soluble |
| MGSDKIHHHHHHMLMETTRLLDIRSMSVEFPGVKALDQVDFTLNRGEIVALLGENGAGKSTLIKALTGVYHRSSGDIILDGIAINPVNTAHAQSLGIGTVYQEVNLLPNLSVAANLFIGREPTRWGIVDQHKILLQAEALLLNYGLAIDVSHPLGNYSIAVQQIVAIARAVDLSAKVLILDEPTASLDAKEVDMLLDILRKLRDRGIGMIFVTHFLDQVYRISDRITVLRNGRLVGTLPTAELPRIELVQMMLGHSFDETLLKRGEHSDVSGEPIVQFKHYGRRGSINDFELSVRPGEIVGLAGLLGSGRTETAQLIFGINVPDAGEAWVDGKKINIRTPRAAGKLGFGYCPEDRKTDGIVGAATVRENIILALQAQRGWLKPISLREQTRIAEKFISLLGIRTPSAEQEIQYLSGGNQQKVLLSRWLATEPRFLILDEPTRGIDVGAHAEIIRLIEKLCEQGMALLVISSELEELTGYADRIIVLRDRQHVAHLEHSEISVAAVMQAIAVQTGAADDRQ | not soluble |
